Laboratory results as given in patent publication US20090062189A1, “TUMOR SUPPRESSOR PROTEIN AND NUCLEOTIDE ENCODING SAME” (priority 2006, published 2009).

Key:
DU145 cells = assay: MTS cell proliferation assay
Protocol: (§1) To determine whether or not alterations in PDZD2 and sPDZD2 levels in inhibitor-treated cells are associated with any changes in the cell growth rate, we also monitored DU145, PC-3, 22Rv1, MCF-7 and Hep-G2 cell proliferation by MTS-based assays. Cell proliferation was measured by a tetrazolium-based Cell Titer 96® AQucous assay kit (Promega). Absorbance at 490 nm was recorded 3 hours after MTS addition.
(§2) Cell proliferation was measured by a tetrazolium-based Cell Titer 96® AQucous assay kit (Promega). Absorbance at 490 nm was recorded 3 hours after MTS addition. […] The number of viable cells was counted using hemocytometers. Any apoptotic effect on cancer cells induced by sPDZD2 was measured by the Cell Death Detection ELISA^PLUS assay kit (Roche), which detects the presence of mono- and oligonucleosomes in the cytoplasm of the cells after lysis. Briefly, the cancer cells (1×10^5/ml) were seeded in 24-well plates and treated with 10^−8 M and 10^−7 M sPDZD2 for 24 hours. After treatment, cells were harvested and any apoptosis was detected according to manufacturer's instructions.

22Rv1 cells [1] = assay: MTS cell proliferation assay
Protocol: as §1, §2

LNCaP cells [2] = assay: Cell Death Detection ELISA PLUS apoptosis assay; type: cell-based, human
Protocol: Data are shown as mean±S.E. Two group comparisons were analyzed by unpaired Student's t test. The level of significance for all statistical analyses was set at P<0.05. *** P<0.001 compared to control.

22Rv1 cells [3] = assay: Trypan blue dye exclusion cell viability assay; type: cell-based, human; conditions: for viability of the cells: mean ± S.E.
[4] = tested on: DU145 prostate cancer xenograft tumors; assay: DU145 prostate cancer xenograft tumor volume in nude mice; type: in vivo, male BALB/c athymic nude mice
Protocol: Data are shown as mean±S.E. Two group comparisons were analyzed by unpaired Student's t test. The level of significance for all statistical analyses was set at P<0.05. * P<0.05 compared to saline-treated control.
For in vivo studies, DU145 cancer cells (5×10^6) in 0.2 ml FBS-containing-EMEM medium were injected subcutaneously into the right flank of each male BALB/c athymic nude mice (weight, 20±2 g). After cancer cell injection, the mice were randomly divided into 3 groups, namely the control, low-dose treatment, and high-dose treatment groups. Ten days after tumor cell implantation, each mouse of the low-dose treatment group and high-dose treatment group was injected, respectively, once daily by the intraperitoneal route with 0.084 mg (in 0.1 ml saline) and 8.4 mg (in 0.1 ml saline) recombinant sPDZD2 for 58 days. The width and length of the tumor in millimeters were measured weekly by a caliper, when the implanted tumor became measurable. The tumor volume was calculated according to the following formula: Volume=d^2×D/2 mm^3, where d is the shorter width and D was the longer length.

LNCaP cells [5] = assay: Trypan blue dye exclusion cell viability assay; type: cell-based, human
Protocol: The effects of sPDZD2 on cell viability were monitored by trypan blue dye exclusion assays. Data are shown as mean±S.E. Two group comparisons were analyzed by unpaired Student's t test. The level of significance for all statistical analyses was set at P<0.05. P<0.001 compared to control.

Hep-G2 cells [6] = assay: MTS cell proliferation assay
Protocol: as §1, §2

Hep-G2 cells [7] = assay: Trypan blue dye exclusion cell viability assay; type: cell-based, human; conditions: for viability of the cells: mean ± S.E.
MCF-7 cells [8] = assay: Trypan blue dye exclusion cell viability assay; type: cell-based, human; conditions: for viability of the cells: mean ± S.E.
PC-3 cells [9] = assay: MTS cell proliferation assay
Protocol: as §1, §2

MCF-7 cells [10] = assay: MTS cell proliferation assay
Protocol: as §1, §2

DU 145 cells = assay: Trypan blue dye exclusion cell viability assay; type: cell-based, human; conditions: for viability of the cells: DU 145, mean ± S.E.
PC-3 cells [11] = assay: Trypan blue dye exclusion cell viability assay; type: cell-based, human; conditions: for viability of the cells: mean ± S.E.
[12] = 10^−9 M, 10^−8 M, 10^−7 M sPDZD2, 24 and 48 hours, P<0.001
[13] = co-incubation 10^−8 M sPDZD2 with 10 μM Z-DEVD-FMK, 48 hours

B1: sPDZD2: secreted 37 kDa cleavage product of human PDZD2, tumor suppressor protein of SEQ ID NO: 2; recombinant form carries N-terminal AGH (protein)
chain: LDKLCSEDYSAGPSAVLFKTELEITPRRSPGPPAGGVSCPEKGGNRACPGGSGPKTSAAETPSSASDTGEAAQDLPFRRSWSVNLDQLLVSAGDQQRLQSVLSSVGSKSTILTLIQEAKAQSENEEDVCFIVLNRKEGSGLGFSVAGGTDVEPKSITVHRVFSQGAASQEGTMNRGDFLLSVNGASLAGLAHGNVLKVLHQAQLHKDALVVIKKGMDQPRPSARQEPPTANGKGLLSRKTIPLEPGIGRSVAVHDALCVEVLKTSAGLGLSLDGGKSSVTGDGPLVIKRVYKGGAAEQAGIIEAGDEILAINGKPLVGLMHFDAWNIMKSVPEGPVQLLIRKHRNSS
decrease in cell proliferation (DU145 cells; 10^−7 M sPDZD2, 24 hours): 29.9%
decrease in cell proliferation (DU145 cells; 10^−7 M sPDZD2, 48 hours): 43.5%
decrease in cell proliferation (DU145 cells; 10^−8 M sPDZD2, 24 hours): 25.8%
decrease in cell proliferation (DU145 cells; 10^−8 M sPDZD2, 48 hours): 38.6%
effect on cell proliferation (in words) (DU145 cells; [12]): concentration-dependent inhibition
effect on the increase in cell proliferation induced by caspase-3 inhibitor treatment (DU145 cells; [13]): abolished
decrease in cell proliferation (22Rv1 cells [1]; 10^−7 M sPDZD2, 24 hours): 15.4%
decrease in cell proliferation (22Rv1 cells [1]; 10^−7 M sPDZD2, 48 hours): 27.7%
decrease in cell proliferation (22Rv1 cells [1]; 10^−8 M sPDZD2, 24 hours): 12.7%
effect on cell proliferation (in words) (22Rv1 cells [1]; [12]): concentration-dependent inhibition
effect on the increase in cell proliferation induced by caspase-3 inhibitor treatment (22Rv1 cells [1]; [13]): abolished
decrease in cell proliferation (22Rv1 cells [1]; sPDZD2, 48 hours): 21.7%
absorbance at 405 nm (mono- and oligo-nucleosomes in the cell cytoplasm, apoptosis) (LNCaP cells [2]; 10^−7 M sPDZD2, 24 hours): Significant (P<0.001) increases
absorbance at 405 nm (mono- and oligo-nucleosomes in the cell cytoplasm, apoptosis) (LNCaP cells [2]; sPDZD2, 24 hours): Significant (P<0.001) increases
viability of the cells (22Rv1 cells [3]; 10^−7M sPDZD2, 24 hrs.): 96.04 ± 0.50%
viability of the cells (22Rv1 cells [3]; 10^−7M sPDZD2, 48 hrs.): 92.65 ± 0.48%
viability of the cells (22Rv1 cells [3]; 10^−8M sPDZD2, 24 hrs.): 96.01 ± 0.38%
viability of the cells (22Rv1 cells [3]; 10^−8M sPDZD2, 48 hrs.): 93.02 ± 0.47%
changes in cell viability (in words) (22Rv1 cells [3]; sPDZD2, 24 and 48 hours): No changes
tumor volumes compared with saline-treated group ([4]; high dose 8.4 mg once daily intraperitoneal for 58 days, at 39, 46, 53, 60 and 67 days after tumor cell implantation): significant decreases
tumor volumes compared with saline-treated group ([4]; low dose 0.084 mg once daily intraperitoneal for 58 days): No significant differences
decrease in cell viability (LNCaP cells [5]; 10^−7 M sPDZD2, 24 hours): 26.2%
decrease in cell viability (LNCaP cells [5]; 10^−7 M sPDZD2, 48 hours): 18.6%
decrease in cell viability (LNCaP cells [5]; 10^−8M sPDZD2, 48 hours): 14.7%
decrease in cell proliferation (Hep-G2 cells [6]; 10^−7 M sPDZD2, 24 hours): 23.1%
decrease in cell proliferation (Hep-G2 cells [6]; 10^−7 M sPDZD2, 48 hours): 22.2%
decrease in cell proliferation (Hep-G2 cells [6]; 10^−8 M sPDZD2, 24 hours): 21%
decrease in cell proliferation (Hep-G2 cells [6]; 10^−8 M sPDZD2, 48 hours): 17%
effect on cell proliferation (in words) (Hep-G2 cells [6]; [12]): concentration-dependent inhibition
effect on the increase in cell proliferation induced by caspase-3 inhibitor treatment (Hep-G2 cells [6]; [13]): abolished
viability of the cells (Hep-G2 cells [7]; 10^−7M sPDZD2, 24 hrs.): 93.37 ± 0.54%
viability of the cells (Hep-G2 cells [7]; 10^−7M sPDZD2, 48 hrs.): 93.58 ± 0.64%
viability of the cells (Hep-G2 cells [7]; 10^−8M sPDZD2, 24 hrs.): 93.38 ± 0.54%
viability of the cells (Hep-G2 cells [7]; 10^−8M sPDZD2, 48 hrs.): 93.64 ± 0.66%
changes in cell viability (in words) (Hep-G2 cells [7]; sPDZD2, 24 and 48 hours): No changes
viability of the cells (MCF-7 cells [8]; 10^−7M sPDZD2, 24 hrs.): 97.34 ± 0.42%
viability of the cells (MCF-7 cells [8]; 10^−7M sPDZD2, 48 hrs.): 92.07 ± 0.89%
viability of the cells (MCF-7 cells [8]; 10^−8M sPDZD2, 24 hrs.): 96.69 ± 0.50%
viability of the cells (MCF-7 cells [8]; 10^−8M sPDZD2, 48 hrs.): 93.86 ± 0.76%
changes in cell viability (in words) (MCF-7 cells [8]; sPDZD2, 24 and 48 hours): No changes
decrease in cell proliferation (PC-3 cells [9]; 10^−7 M sPDZD2, 24 hours): 22.6%
decrease in cell proliferation (PC-3 cells [9]; 10^−7 M sPDZD2, 48 hours): 41.6%
decrease in cell proliferation (PC-3 cells [9]; 10^−8M sPDZD2, 24 hours): 13.5%
decrease in cell proliferation (PC-3 cells [9]; 10^−8 M sPDZD2, 48 hours): 23.8%
effect on cell proliferation (in words) (PC-3 cells [9]; [12]): concentration-dependent inhibition
effect on the increase in cell proliferation induced by caspase-3 inhibitor treatment (PC-3 cells [9]; [13]): abolished
decrease in cell proliferation (MCF-7 cells [10]; 10^−7 M sPDZD2 (first-named of '10^−7 M and 10^−7 M'), 24 hours): 14.5%
decrease in cell proliferation (MCF-7 cells [10]; 10^−7 M sPDZD2 (second-named), 24 hours): 23.2%
decrease in cell proliferation (MCF-7 cells [10]; 10^−7 M sPDZD2, 48 hours): 21.4%
effect on cell proliferation (in words) (MCF-7 cells [10]; [12]): concentration-dependent inhibition
decrease in cell proliferation (MCF-7 cells [10]; 1108 M sPDZD2, 48 hours): 13.7%
effect on the increase in cell proliferation induced by caspase-3 inhibitor treatment (MCF-7 cells [10]; [13]): abolished
viability of the cells (DU 145 cells; 10^−7M sPDZD2, 24 hrs.): 93.78 ± 1.06%
viability of the cells (DU 145 cells; 10^−7M sPDZD2, 48 hrs.): 95.25 ± 0.88%
viability of the cells (DU 145 cells; 10^−8M sPDZD2, 24 hrs.): 94.66 ± 0.69%
viability of the cells (DU 145 cells; 10^−8M sPDZD2, 48 hrs.): 95.09 ± 1.02%
changes in cell viability (in words) (DU 145 cells; DU145, sPDZD2, 24 and 48 hours): No changes
viability of the cells (PC-3 cells [11]; 10^−7M sPDZD2, 24 hrs.): 90.86 ± 1.12%
viability of the cells (PC-3 cells [11]; 10^−7M sPDZD2, 48 hrs.): 95.45 ± 0.56%
viability of the cells (PC-3 cells [11]; 10^−8M sPDZD2, 24 hrs.): 95.03 ± 1.00%
viability of the cells (PC-3 cells [11]; 10^−8M sPDZD2, 48 hrs.): 95.49 ± 0.79%
changes in cell viability (in words) (PC-3 cells [11]; sPDZD2, 24 and 48 hours): No changes
